Source: publication PMC10611921, “Assessing the dynamics and macromolecular interactions of the intrinsically disordered protein YY1” (Bioscience Reports, 2023)

Assays:
FOXP2 FHD [1] = target: T1, FOXP2 FHD (UniProt O15409 504-594); test: EMSA; control gel; no specific binding; Anisotropy: 10 mM HEPES pH 7.5, 100 mM NaCl, 20 C; EMSA: 0.5 uM DNA, 20% (v/v) of binding buffer (10 mM HEPES pH 7.5, 1 mM MgCl2, 100 mM KCl, 10% glycerol, 0.1); settings: protein: recombinant; tags: His6 removed with thrombin
T1 sequence: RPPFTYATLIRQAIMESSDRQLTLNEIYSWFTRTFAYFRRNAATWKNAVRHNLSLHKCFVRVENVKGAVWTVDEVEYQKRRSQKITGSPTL

[2] = target: YY1 labelled with NTA ATTO 550 (UniProt P25490 1-414); test: fluorescence anisotropy; apparent KD; 0.2 uM labelled YY1, DNA titrated; 100 mM NaCl; Anisotropy: 10 mM HEPES pH 7.5, 100 mM NaCl, 20 C; EMSA: 0.5 uM DNA, 20% (v/v) of binding buffer (10 mM HEPES pH 7.5, 1 mM MgCl2, 100 mM KCl, 10% glycerol, 0.1); settings: protein: recombinant; tags: N-terminal His6 (NTA ATTO 550 label)
FOXP2 FHD [3] = target: T1, FOXP2 FHD; test: EMSA; single complex, no YY1; Anisotropy: 10 mM HEPES pH 7.5, 100 mM NaCl, 20 C; EMSA: 0.5 uM DNA, 20% (v/v) of binding buffer (10 mM HEPES pH 7.5, 1 mM MgCl2, 100 mM KCl, 10% glycerol, 0.1); settings: protein: recombinant; tags: His6 removed with thrombin
[4] = target: T2, Yin Yang 1 (YY1), full-length, N-terminal hexahistidine tag (UniProt P25490 1-414, NTA ATTO 550 on the N-terminal hexahistidine tag (the labelled copy in the anisotropy assays)); test: fluorescence polarisation; fluorescence anisotropy; unlabelled FOXP2 FHD titrated into 0.2 μM YY1 labelled with NTA ATTO 550; 100 mM NaCl, 10 mM HEPES pH 7.5, 20°C; single site model, apparent KD; settings: both partners purified
T2 construct: YY1 (Yin Yang 1), full-length construct; A heterogeneous mixture of oligomers in solution; In the anisotropy assays 0.2 μM YY1 carried NTA ATTO 550 on the His tag; the titrated YY1 was unlabelled; also called Ying Yang 1; source: T7 cells (Genscript), pET-11A plasmid, purified (IMAC on cobalt, size exclusion chromatography); not shown: His6, N-terminal, kept

[5] = target: T2, Yin Yang 1 (YY1), full-length, …; test: fluorescence polarisation; fluorescence anisotropy; unlabelled FOXP2 FHD titrated into 0.2 μM YY1 labelled with NTA ATTO 550; 300 mM NaCl, 10 mM HEPES pH 7.5, 20°C; single site model, apparent KD; settings: both partners purified
[6] = target: T2, Yin Yang 1 (YY1), full-length, …; test: fluorescence polarisation; fluorescence anisotropy; unlabelled FOXP2 FHD titrated into 0.2 μM YY1 labelled with NTA ATTO 550; 500 mM NaCl, 10 mM HEPES pH 7.5, 20°C; single site model, apparent KD; settings: both partners purified
[7] = target: T2, Yin Yang 1 (YY1), full-length, …; test: fluorescence polarisation; fluorescence anisotropy; unlabelled FOXP2 FHD titrated into 0.2 μM YY1 labelled with NTA ATTO 550 in the presence of 10 μM background AAV P5 promoter DNA (YY1 specific); 100 mM NaCl, 10 mM HEPES pH 7.5, 20°C; settings: both partners purified

T2 sequence (P25490 whole entry): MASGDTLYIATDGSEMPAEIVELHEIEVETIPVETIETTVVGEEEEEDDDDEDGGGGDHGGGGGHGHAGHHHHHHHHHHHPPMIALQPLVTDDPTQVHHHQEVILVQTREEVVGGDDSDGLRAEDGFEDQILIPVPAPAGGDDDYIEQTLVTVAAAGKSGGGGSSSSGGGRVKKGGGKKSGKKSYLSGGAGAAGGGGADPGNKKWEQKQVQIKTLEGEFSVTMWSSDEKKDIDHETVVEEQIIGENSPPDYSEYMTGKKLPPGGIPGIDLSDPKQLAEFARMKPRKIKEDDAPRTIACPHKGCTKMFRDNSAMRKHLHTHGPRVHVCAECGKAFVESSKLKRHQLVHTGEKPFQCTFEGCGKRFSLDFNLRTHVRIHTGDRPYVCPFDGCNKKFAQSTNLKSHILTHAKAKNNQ
Chain of YY1 labelled with NTA ATTO 550 (P25490 whole entry): as above

B1: AAV P5 DNA (dsDNA)
DNA 1: AGGGTCTCCATTTTGAAGCG
DNA 2: CGCTTCAAAATGGAGACCCT
In the case of B1, the binding result (FOXP2 FHD [1]) is reported as “no binding” and the Kd [2] is reported as 3.7 ± 0.4 µM.

B2: CNTNAP2 DNA (dsDNA)
DNA 1: TTTGATTGTTTACTTTGTTC
DNA 2: GAACAAAGTAAACAATCAAA
B2: binds (FOXP2 FHD [3]).

B3: FOXP2 forkhead domain (FHD) (domain or fragment, UniProt O15409 504-594, looked up)
chain: RPPFTYATLIRQAIMESSDRQLTLNEIYSWFTRTFAYFRRNAATWKNAVRHNLSLHKCFVRVENVKGAVWTVDEVEYQKRRSQKITGSPTL
notes: also called FOXP2 FHD; forkhead box P2 forkhead domain; source: T7 cells (Genscript), pET-11A plasmid, purified (IMAC on nickel; His-tag removed with thrombin, benzamidine and HiTrap columns); not shown: His6, N-terminal, cleaved
In the case of B3, the Kd [4] is reported as about 73 µM, the Kd [5] is reported as about 28 µM and the Kd [6] is reported as about 67 µM. The Kd [7] was 58 ± 6 µM.
